Reference: the supplement of paper PMC10065799, “High-throughput profiling of sequence recognition by tyrosine kinases and SH2 domains using bacterial peptide display” (eLife, 2023)

How the values were obtained:
MERTK = MERTK (UniProt Q12866); assay: phosphorylation enrichment, bacterial display (enrichment ratio); higher = better substrate or ligand; peptides without Tyr show the background
Hck = Hck (UniProt P08631); assay: as above
EPHB1 = EPHB1 (UniProt P54762); assay: as above
Fer (mouse) = assay: as above
Jak2 = Jak2 (UniProt O60674); assay: as above
AncSZ = assay: as above
Fyn = Fyn (UniProt P06241); assay: as above
c-Abl (mouse) = assay: as above
Fes = Fes (UniProt P07332); assay: as above
c-Src = assay: as above
FGFR1 = FGFR1 (UniProt P11362); assay: as above
EPHB2 = EPHB2 (UniProt P29323); assay: as above
FGFR3 = FGFR3 (UniProt P22607); assay: as above
c-Src SH2 = assay: SH2 binding enrichment of the phosphorylated peptide, bacterial display (enrichment ratio); higher = better substrate or ligand; peptides without Tyr show the background
SHP2-C SH2 = assay: as above
Grb2 SH2 = Grb2 SH2 (UniProt P62993); assay: as above
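Wherever SH2 binding enrichment of the phosphorylated peptide, bacterial display is given: peptide library displayed on the E. coli surface as eCPX fusions, selected cells deep-sequenced, score is each peptide's frequency after selection divided by its frequency in the input.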
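Wherever phosphorylation enrichment, bacterial display is given: 11-residue human phosphosite peptides and single-mutation variants displayed on the E. coli surface, counted by deep sequencing, each peptide's frequency after selection divided by its frequency in the unselected input library; frequency after pTyr selection over input frequency; kinase dosed for 20-30% of maximal phosphorylation in three min.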

Chain of FGFR3 (P22607 whole entry, looked up): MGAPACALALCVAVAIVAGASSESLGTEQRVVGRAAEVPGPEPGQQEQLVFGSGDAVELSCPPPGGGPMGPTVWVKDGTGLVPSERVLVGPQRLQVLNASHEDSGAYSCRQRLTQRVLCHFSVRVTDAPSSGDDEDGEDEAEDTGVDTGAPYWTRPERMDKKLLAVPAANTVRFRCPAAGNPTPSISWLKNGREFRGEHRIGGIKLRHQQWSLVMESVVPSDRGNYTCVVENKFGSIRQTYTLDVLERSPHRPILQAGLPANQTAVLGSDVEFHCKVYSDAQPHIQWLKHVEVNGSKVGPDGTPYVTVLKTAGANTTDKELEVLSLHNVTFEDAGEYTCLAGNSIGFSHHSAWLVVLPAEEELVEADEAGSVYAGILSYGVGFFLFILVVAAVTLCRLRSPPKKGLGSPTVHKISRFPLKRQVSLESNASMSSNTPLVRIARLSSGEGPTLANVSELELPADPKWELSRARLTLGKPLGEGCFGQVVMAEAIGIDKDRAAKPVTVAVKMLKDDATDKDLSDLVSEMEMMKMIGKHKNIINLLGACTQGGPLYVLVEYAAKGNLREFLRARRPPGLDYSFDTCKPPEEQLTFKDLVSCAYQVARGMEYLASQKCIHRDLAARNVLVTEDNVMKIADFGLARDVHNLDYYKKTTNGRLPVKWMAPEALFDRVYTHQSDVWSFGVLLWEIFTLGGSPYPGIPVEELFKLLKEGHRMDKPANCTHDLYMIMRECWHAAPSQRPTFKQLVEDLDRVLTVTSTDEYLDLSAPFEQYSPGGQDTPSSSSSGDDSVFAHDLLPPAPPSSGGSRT
Chain of FGFR1 (P11362 whole entry, looked up): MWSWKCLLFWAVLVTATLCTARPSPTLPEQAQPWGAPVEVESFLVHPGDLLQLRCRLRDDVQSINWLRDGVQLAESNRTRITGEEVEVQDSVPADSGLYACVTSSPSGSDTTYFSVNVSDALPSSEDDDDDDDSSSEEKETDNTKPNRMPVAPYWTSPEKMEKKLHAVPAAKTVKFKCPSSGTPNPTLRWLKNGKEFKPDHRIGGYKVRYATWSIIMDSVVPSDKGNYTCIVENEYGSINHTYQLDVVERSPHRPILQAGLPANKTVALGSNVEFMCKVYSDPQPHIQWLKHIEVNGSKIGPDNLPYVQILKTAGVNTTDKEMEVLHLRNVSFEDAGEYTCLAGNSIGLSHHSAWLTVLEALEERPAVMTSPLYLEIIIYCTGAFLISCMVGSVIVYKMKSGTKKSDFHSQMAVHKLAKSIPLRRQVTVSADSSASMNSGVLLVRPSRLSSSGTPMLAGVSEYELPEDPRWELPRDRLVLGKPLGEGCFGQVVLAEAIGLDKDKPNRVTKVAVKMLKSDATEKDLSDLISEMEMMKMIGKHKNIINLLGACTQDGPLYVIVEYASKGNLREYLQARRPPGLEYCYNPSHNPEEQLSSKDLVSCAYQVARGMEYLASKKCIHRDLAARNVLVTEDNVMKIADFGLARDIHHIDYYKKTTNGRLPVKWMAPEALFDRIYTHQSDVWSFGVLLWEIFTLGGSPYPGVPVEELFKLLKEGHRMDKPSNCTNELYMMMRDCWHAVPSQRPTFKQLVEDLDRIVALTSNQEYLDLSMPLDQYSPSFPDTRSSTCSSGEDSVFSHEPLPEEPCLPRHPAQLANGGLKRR
Chain of Jak2 (O60674 whole entry, looked up): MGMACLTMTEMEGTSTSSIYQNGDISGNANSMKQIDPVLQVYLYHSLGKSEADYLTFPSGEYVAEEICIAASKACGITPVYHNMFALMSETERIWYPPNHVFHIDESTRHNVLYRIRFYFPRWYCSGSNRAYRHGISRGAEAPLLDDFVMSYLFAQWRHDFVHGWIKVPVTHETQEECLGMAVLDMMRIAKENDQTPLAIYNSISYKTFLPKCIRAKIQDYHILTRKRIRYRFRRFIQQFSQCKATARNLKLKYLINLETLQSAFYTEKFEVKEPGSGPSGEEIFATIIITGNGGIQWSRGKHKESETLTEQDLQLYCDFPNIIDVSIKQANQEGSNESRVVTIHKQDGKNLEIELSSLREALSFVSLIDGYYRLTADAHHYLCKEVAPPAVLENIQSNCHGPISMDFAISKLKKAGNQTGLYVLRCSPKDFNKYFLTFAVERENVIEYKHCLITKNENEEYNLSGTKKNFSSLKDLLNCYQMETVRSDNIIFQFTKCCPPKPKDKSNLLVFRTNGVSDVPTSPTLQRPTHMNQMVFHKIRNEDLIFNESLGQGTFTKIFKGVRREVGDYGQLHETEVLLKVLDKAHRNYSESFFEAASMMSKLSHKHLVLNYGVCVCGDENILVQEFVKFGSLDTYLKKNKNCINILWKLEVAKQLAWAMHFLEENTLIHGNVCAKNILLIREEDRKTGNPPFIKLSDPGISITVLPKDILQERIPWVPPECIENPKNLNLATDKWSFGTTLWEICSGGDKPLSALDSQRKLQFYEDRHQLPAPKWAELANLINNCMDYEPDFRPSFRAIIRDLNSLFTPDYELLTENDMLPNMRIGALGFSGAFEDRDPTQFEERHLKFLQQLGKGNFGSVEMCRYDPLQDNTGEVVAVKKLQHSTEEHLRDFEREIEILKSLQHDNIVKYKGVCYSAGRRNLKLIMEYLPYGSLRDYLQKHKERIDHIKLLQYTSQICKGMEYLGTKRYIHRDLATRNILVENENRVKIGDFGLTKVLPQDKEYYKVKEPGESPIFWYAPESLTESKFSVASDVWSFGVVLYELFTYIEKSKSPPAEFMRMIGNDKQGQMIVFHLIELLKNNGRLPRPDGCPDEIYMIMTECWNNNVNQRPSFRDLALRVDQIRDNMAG
Chain of EPHB1 (P54762 whole entry, looked up): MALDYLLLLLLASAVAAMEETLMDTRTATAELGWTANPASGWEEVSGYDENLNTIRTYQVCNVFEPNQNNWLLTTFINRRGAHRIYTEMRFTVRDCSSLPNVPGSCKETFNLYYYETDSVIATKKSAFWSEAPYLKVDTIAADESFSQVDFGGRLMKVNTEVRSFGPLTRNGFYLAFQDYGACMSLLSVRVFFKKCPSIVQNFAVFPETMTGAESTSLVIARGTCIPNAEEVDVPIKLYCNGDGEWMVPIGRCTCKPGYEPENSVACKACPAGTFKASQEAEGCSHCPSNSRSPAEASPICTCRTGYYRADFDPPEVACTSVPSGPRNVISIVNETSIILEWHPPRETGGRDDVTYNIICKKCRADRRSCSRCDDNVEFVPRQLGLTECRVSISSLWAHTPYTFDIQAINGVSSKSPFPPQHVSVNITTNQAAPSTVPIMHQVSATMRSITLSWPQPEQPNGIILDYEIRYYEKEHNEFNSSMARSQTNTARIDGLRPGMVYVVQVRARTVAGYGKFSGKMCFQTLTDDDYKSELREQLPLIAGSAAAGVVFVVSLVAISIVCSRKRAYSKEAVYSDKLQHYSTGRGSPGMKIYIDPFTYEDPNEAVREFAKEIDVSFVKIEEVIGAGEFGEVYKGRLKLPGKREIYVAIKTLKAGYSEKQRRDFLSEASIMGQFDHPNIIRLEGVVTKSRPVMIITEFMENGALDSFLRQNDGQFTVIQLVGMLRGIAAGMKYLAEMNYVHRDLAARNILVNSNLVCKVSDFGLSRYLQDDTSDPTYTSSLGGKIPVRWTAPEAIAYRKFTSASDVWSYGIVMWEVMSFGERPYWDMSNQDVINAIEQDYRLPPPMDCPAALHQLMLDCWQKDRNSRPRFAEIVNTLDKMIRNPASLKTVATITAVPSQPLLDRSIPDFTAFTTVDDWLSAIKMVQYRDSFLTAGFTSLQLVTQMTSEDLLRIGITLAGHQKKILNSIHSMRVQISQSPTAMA
Chain of Fyn (P06241 whole entry, looked up): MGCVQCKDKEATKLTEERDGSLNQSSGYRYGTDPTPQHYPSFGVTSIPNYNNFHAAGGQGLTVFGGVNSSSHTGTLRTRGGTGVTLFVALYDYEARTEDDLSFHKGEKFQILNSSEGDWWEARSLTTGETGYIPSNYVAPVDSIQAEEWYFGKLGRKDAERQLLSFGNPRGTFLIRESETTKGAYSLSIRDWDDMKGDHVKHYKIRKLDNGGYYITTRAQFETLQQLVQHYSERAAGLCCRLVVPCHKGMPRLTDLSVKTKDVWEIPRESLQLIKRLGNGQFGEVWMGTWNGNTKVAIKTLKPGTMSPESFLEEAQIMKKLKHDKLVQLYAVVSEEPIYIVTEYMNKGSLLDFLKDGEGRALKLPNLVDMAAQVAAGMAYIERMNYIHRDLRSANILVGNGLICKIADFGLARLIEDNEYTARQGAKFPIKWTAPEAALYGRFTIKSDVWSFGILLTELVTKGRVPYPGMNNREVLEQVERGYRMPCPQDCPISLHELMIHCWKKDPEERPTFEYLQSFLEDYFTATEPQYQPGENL
Chain of Hck (P08631 whole entry, looked up): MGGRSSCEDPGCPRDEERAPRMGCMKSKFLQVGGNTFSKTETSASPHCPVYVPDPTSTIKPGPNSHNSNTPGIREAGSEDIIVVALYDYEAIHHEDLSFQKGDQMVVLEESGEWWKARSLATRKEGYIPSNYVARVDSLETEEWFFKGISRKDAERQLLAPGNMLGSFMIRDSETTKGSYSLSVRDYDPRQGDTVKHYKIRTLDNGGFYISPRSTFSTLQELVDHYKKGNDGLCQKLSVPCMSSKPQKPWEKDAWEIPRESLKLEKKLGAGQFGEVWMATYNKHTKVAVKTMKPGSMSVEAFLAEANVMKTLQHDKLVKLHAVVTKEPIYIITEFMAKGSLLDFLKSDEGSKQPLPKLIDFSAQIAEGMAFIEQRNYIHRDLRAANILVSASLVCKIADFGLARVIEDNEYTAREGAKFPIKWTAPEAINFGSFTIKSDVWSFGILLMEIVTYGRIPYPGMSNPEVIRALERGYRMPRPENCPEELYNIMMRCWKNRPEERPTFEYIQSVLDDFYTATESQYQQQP

Sequence	SH2 binding enrichment (c-Src SH2)	SH2 binding enrichment (SHP2-C SH2)	SH2 binding enrichment (Grb2 SH2)	phosphorylation enrichment (MERTK)	phosphorylation enrichment (Hck)	phosphorylation enrichment (EPHB1)	phosphorylation enrichment (Fer (mouse))	phosphorylation enrichment (Jak2)	phosphorylation enrichment (AncSZ)	phosphorylation enrichment (Fyn)	phosphorylation enrichment (c-Abl (mouse))	phosphorylation enrichment (Fes)	phosphorylation enrichment (c-Src)	phosphorylation enrichment (FGFR1)	phosphorylation enrichment (EPHB2)	phosphorylation enrichment (FGFR3)
PVQAAYPKVVA [HBB_Y131_Q132P]	0.386	0.697	0.904	0.504	0.335	0.902	0.261	0.828	0.706	0.42	0.501	0.804	1	0.322	0.542	0.503
PYSNSYENSLI [EPOR_Y489_P488S]	4.51	0.735	18.4	0.552	0.887	0.713	0.754	0.903	1.32	0.699	1.06	1.41	0.689	1.04	0.433	0.854
QDEHGYISWCF [HSPB1_Y133_R136W]	0.545	0.463	0.64	0.8	0.944	1	1.05	2.61	2.17	0.559	1.55	2.34	0.865	1.27	0.873	1.8
QEGPEYWDQQT [HLA-A_Y83_E87Q]	0.421	0.612	0.664	0.649	0.58	1.31	0.884	2.33	2.09	0.741	1.78	2.21	0.937	1.01	0.967	1.21
QEKKGYFEDRR [GLUL_Y336]	0.952	0.761	1.02	0.605	0.792	0.618	0.821	0.628	0.907	0.906	1.2	1	0.469	0.682	0.577	0.733
QFNMQYSSSAA [ERBB2IP_Y981_I979M_YF]	0.643	0.527	0.694	0.492	0.47	0.592	0.492	0.581	0.937	0.388	0.449	1.18	0.346	0.558	0.529	0.674
QKPLGYFRVNL [GALE_Y104_D103G_YF]	1.09	1.36	1.56	0.577	0.648	0.518	0.399	1.16	1.2	0.657	0.67	1.12	0.409	0.839	0.635	0.722
QLGLQYSQGLV [EIF2B4_Y214_R209Q]	0.375	0.721	0.644	0.731	0.598	0.427	0.527	1.75	0.995	0.447	0.861	0.835	0.629	0.478	0.479	0.776
QLYGPYLRIHA [BSCL2_Y213_A212P]	1.07	1.54	1.29	0.538	2.83	0.897	0.596	0.974	0.87	2.04	0.612	1.12	2.52	0.344	2.03	0.73
QMVGMYASSFM [AVPR2_Y124_YF]	0.548	0.637	0.626	2.31	1.34	0.922	0.904	1.21	0.981	1.59	1.48	1.07	1.6	0.73	0.914	0.782
QPSALYEDRFL [ASS1_Y83_S79P_YF]	0.633	0.684	0.783	1.11	6.97	3.04	10.6	0.968	1.4	1.77	0.881	1.4	1.41	0.816	2.01	1.12
QPSALYEDRYL [ASS1_Y83_S79P]	0.984	0.461	0.918	0.78	3.92	1.67	6.74	1.04	0.93	0.946	0.681	1.06	0.942	0.529	1.16	0.625
QQMGTYGVRAA [ICAM2_Y260_R256Q]	0.37	0.373	1.07	0.658	3.77	0.281	0.339	0.313	0.33	2.06	0.442	0.579	2.48	0.392	0.414	0.417
QRIHDYFEHRF [HCN4_Y554_YF]	0.957	0.46	0.847	0.447	0.527	0.614	0.872	0.575	1.06	0.479	0.625	0.656	0.496	5.67	0.843	3.23
QRIHNYFEHRF [HCN4_Y554_D553N_YF]	1.31	1.22	1.16	0.567	0.409	0.543	0.343	0.34	0.647	0.441	0.34	0.692	0.493	0.719	0.443	0.374
QRVLLYVQRET [GRHL3_Y518_R520Q]	1.03	1.52	1.66	0.452	0.509	1.04	0.885	1.89	1.82	0.673	1.36	1.89	0.57	0.855	0.763	1.13
QSPQLYKQLCI [DARS1_Y253_M256L]	0.432	0.625	0.585	0.432	0.706	0.511	0.483	0.875	1.02	0.719	0.449	1.12	0.53	0.653	0.957	1.05
QSSALYEDHFL [ASS1_Y83_R86H_YF]	0.48	1.13	0.809	2.51	1.57	5.92	17.9	0.898	1.07	1.36	1.04	1.47	2.12	0.654	4.17	0.46

Second part, led by results:

SH2 binding enrichment (c-Src SH2)	SH2 binding enrichment (SHP2-C SH2)	SH2 binding enrichment (Grb2 SH2)	Sequence	phosphorylation enrichment (MERTK)	phosphorylation enrichment (Hck)	phosphorylation enrichment (EPHB1)	phosphorylation enrichment (Fer (mouse))	phosphorylation enrichment (Jak2)	phosphorylation enrichment (AncSZ)	phosphorylation enrichment (Fyn)	phosphorylation enrichment (c-Abl (mouse))	phosphorylation enrichment (Fes)	phosphorylation enrichment (c-Src)	phosphorylation enrichment (FGFR1)	phosphorylation enrichment (EPHB2)	phosphorylation enrichment (FGFR3)
1.94	1.03	0.795	PYADPYYDYEI [ZC3H18_Y371]	4.93	3.13	5.6	6.03	2.75	4.79	6.02	1.16	2.33	8.11	20.2	4.58	19.8
1.47	0.992	0.808	PYGQWYESHYA [RPS8_Y113_R110G]	9.28	5.96	14.5	20.6	1.09	1.55	6.11	1.06	2.16	6.96	2.7	15.1	2.15
0.644	0.61	0.876	QCQLKYSETPF [SIX6OS1_Y129_Y125C]	0.82	0.749	0.634	0.798	1.01	1.24	0.558	0.933	1.32	0.717	0.68	0.722	0.842
0.594	0.465	0.672	QCTSAHPLQPE [NANS_Y188_Y188H]	0.449	0.771	1.07	0.726	1.28	1.25	0.601	1.09	1.73	0.461	0.966	0.923	0.961
0.636	0.698	0.667	QEALEYFMKQM [PIK3CA_Y1038]	0.584	0.39	0.644	0.584	1.49	1.36	0.696	1.19	1.22	0.675	0.627	0.624	0.704
0.413	0.58	0.862	QEIATYRRLLE [KRT14_Y415]	0.464	0.453	0.418	0.411	0.693	0.689	0.562	0.563	0.936	0.503	0.509	0.53	0.68
0.441	0.593	0.855	QEIATYRRLPE [KRT16_Y417_L421P]	0.489	0.553	0.77	0.406	0.73	0.762	0.525	0.683	0.757	0.38	0.507	0.592	0.737
1.11	0.728	0.667	QISSNYDDAMQ [ZNF281_Y531]	0.845	0.499	0.665	0.533	0.939	0.962	0.348	0.569	0.978	0.57	0.434	0.771	0.703
0.521	0.587	1.03	QITQVCGFFDE [PPP2CA_Y127_Y127C_YF]	0.812	0.645	0.645	0.612	1.92	1.56	0.434	1.65	1.95	0.599	0.5	0.871	1.24
0.439	0.488	0.952	QKDTFYGLRSL [IGSF10_Y126]	0.552	0.598	0.488	0.474	1	0.73	0.498	0.837	1.12	0.807	0.562	0.927	0.562
0.637	0.747	0.985	QLHEHYKIHKE [NSMAF_Y626]	0.878	0.526	0.455	0.563	0.641	0.748	0.697	0.623	0.95	0.777	0.311	0.597	0.772
0.581	0.607	0.642	QMIETYFDFRV [NSMF_Y506_L511V]	1.09	2.77	2.29	0.679	2.78	1.77	3.37	0.887	1.39	4.53	5.84	1.46	4.49
0.573	0.977	1.02	QPSPSYDSSGG [TCF12_Y70_R74G]	0.452	0.604	0.44	0.553	0.579	0.668	0.667	0.477	0.731	0.478	0.611	0.778	0.623
0.662	0.677	0.951	QRRLVYYERGA [RYR1_Y245_G248R]	0.319	0.53	0.448	0.226	0.391	0.427	0.533	0.368	0.537	0.426	0.499	0.345	0.48
0.719	1.26	1.13	QSSEGYDLGDR [KIAA1210_Y564_G565D]	0.501	0.546	0.644	0.607	1.09	1.41	0.948	1.12	1.43	0.688	0.416	0.853	0.714
